Reference: FireProtDB (doi:10.1006/jmbi.2001.5050)

B1: Cold shock protein CspB, P41016 (parent)
chain: MQRGKVKWFNNEKGYGFIEVEGGSDVFVHFTAIQGEGFKTLEEGQEVSFEIVQGNRGPQAANVVKL

Variants of: B1
Settings: Bacillus caldolyticus, pH 7, CD, sodium cacodylate-HCl 100 mM, reversible: yes, structure 1C9O, whole UniProt chain shown

Variant	ddG of mutation (higher = less stable) (70 °C, Thermal, NaCl 2 M) [kcal/mol]	unfolding free energy (70 °C, Thermal, NaCl 2 M) [kcal/mol]	ddG of mutation (higher = less stable) (70 °C, Thermal) [kcal/mol]	unfolding free energy (70 °C, Thermal) [kcal/mol]	Tm (Thermal) [°C]	change of melting temperature, mutant - wild type (higher = more stable) (Thermal) [°C]	unfolding enthalpy (van 't Hoff) (Thermal) [kcal/mol]	ddG of mutation (higher = less stable) (25 °C, GdnHCl) [kcal/mol]	denaturant m value (25 °C, GdnHCl) [kcal/mol/M]	denaturant midpoint (higher = more stable) (25 °C, GdnHCl) [M]	unfolding free energy (25 °C, GdnHCl) [kcal/mol]
T31S	-0.19	2.39	-0.17	1.24	77.8	0.9	59.8	–	–	–	–
S24D	-0.19	2.39	-0.22	1.29	77.8	0.9	61.7	-0.1	1.65	2.79	1.29
V64T	0.19	2.01	0.26	0.81	75.1	-1.8	58.3	0.31	1.79	2.5	0.88
R3E E46A	0.96	1.24	–	–	64.6	-12.3	52.8	0.43	1.63	2.47	0.76
G23Q S24D	0.1	2.1	0.12	0.96	75.9	-1	59.5	-0.07	1.67	2.75	1.27
R3E L66E	–	–	–	–	44.6	-32.3	36.8	–	–	–	–
Q53E	0	2.2	0.1	0.98	76.1	-0.8	58.8	-0.02	1.82	2.68	1.22
N11S	-0.22	2.41	-0.33	1.41	79.2	2.3	58.8	0	1.74	2.69	1.2
Q2L	-0.29	2.49	-0.55	1.63	80.9	4	57.8	-0.41	1.7	2.95	1.6
E21A	0.29	1.91	0.29	0.79	75	-1.9	57.8	–	–	–	–
R3E E21A	1.1	1.1	–	–	60	-16.9	49.2	–	–	–	–
G23Q	0.31	1.89	0.29	0.79	74.7	-2.2	59.5	0	1.89	2.62	1.2
E46A L66E	1.39	0.81	–	–	68	-8.9	51.9	0.84	1.84	2.2	0.36
E46A L66A	0.22	1.98	0.29	0.79	75	-1.9	56.9	–	–	–	–
R3L	0.22	1.98	0.93	0.14	70.9	-6	55.7	–	–	–	–
R3A	1.05	1.15	–	–	64.9	-12	51.4	–	–	–	–
R3K	0.14	2.06	0.19	0.88	76.1	-0.8	53.5	–	–	–	–
R3E	1	1.2	–	–	–	–	–	0.84	1.6	2.23	0.36
L66E	1.27	0.93	–	–	68.9	-8	50.2	0.84	1.74	2.21	0.36
L66A	0.07	2.13	–	–	–	–	–	–	–	–	–
E46A	0.12	2.08	0.22	0.86	75.4	-1.5	57.6	-0.1	–	2.77	1.29
Y15F	-0.07	2.27	0.05	1.03	76.7	-0.2	56.6	0.1	1.6	2.69	1.1
R3E E46A L66E	–	–	–	–	50.3	-26.6	40.4	–	–	–	–
